# Laboratory results as given in US20050130152, “Method for performing in vitro diagnosis using gene regulation mechanisms and corresponding diagnosis kit” (UNISENSOR S.A., published 2005).
# B1: tetA operator of pSC101 (teta-40/teta-30) (dsDNA)
# DNA 1: TTTTTTTTTTTAATGCGGTAGTTTATCACAGTTAATTGCTAA
# DNA 2: TTAGCAATTAACTGTGATAAACTACCGCATT
# Target: T1, TetR class C (tetracycline repressor, pSC101) (Escherichia coli C600 (plasmid pSC101), UniProt P03039 P03039:1-219)
# T1 sequence: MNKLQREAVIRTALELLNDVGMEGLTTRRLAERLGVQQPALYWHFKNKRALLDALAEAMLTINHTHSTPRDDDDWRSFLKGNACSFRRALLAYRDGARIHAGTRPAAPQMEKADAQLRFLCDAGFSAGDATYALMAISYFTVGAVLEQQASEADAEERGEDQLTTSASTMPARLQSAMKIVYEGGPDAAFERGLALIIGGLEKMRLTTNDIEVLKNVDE
# Experiment: immunochromatographic strip; test line 5218 without tetracycline, falling to 399 at 100 ppb tetracycline in milk; DNA immobilised via avidin
# Details: tags: untagged; detected via anti-TetR serum and gold-labelled A-protein in strip assay; chain copies: 2; label: 5'-biotin on teta-40; 31 bp duplex with 5' single-strand poly-T tail
# Procedure: 200 μl of milk are incubated in the presence of the lyophilised reagents and prepared as in Point 1.1.2.2. After two minutes of incubation at 37° C., the analysis strip described at 1.3 is immersed in the solution. The final interpretation is carried out after 8 minutes of incubation by means of an optical strip reader available from 77-Elektronika (Budapest, Hungary).
binder,measurement,value
B1,binding result,binds
